# Laboratory results as given in the Immune Epitope Database (IEDB).
# Experiments:
# Test in all cases: IEDB peptide-MHC binding, purified MHC/competitive/radioactivity; filed as Kd, often an IC50 or EC50 that approximates it; ≥ and ≤ were set here for values at or beyond the usual limits of such assays
# Conditions in all cases: source organism: Toxoplasma gondii
# HLA-B*53:01 = biological target: HLA-B*53:01
# HLA-B*42:01 = biological target: HLA-B*42:01
# HLA-B*35:03 = biological target: HLA-B*35:03
# HLA-B*07:02 = biological target: HLA-B*07:02
# HLA-B*51:01 = biological target: HLA-B*51:01
# HLA-B*54:01 = biological target: HLA-B*54:01
# HLA-B*35:01 = biological target: HLA-B*35:01
sequence,measurement,setting,value
HPGSVNEFDF,Kd,HLA-B*53:01,5.52 µM
same,Kd,HLA-B*42:01,0.877 µM
same,Kd,HLA-B*35:03,11.5 µM
same,Kd,HLA-B*07:02,3.62 µM
same,Kd,HLA-B*51:01,14.7 µM
same,Kd,HLA-B*54:01,0.854 µM
same,Kd,HLA-B*35:01,2.09 µM
